According to article PMC8448731 (2021):

Target: recombinant RBD (ThermoFisher, RP-87678) (SARS-CoV-2, UniProt P0DTC2 319-541)
Assay: BLI

B1: GST-tagged SR6v15 (VHH)
VHH: EVQLVESGGGLVQAGDSLRLSCAASGDSYILWRMGWFRQAPGKEREFVAAISLDGQFTNYADSVRGRFSISADSAKYTVYLQMNSLKPEDTAVYYCAALPFLDYWGQGTQVTVSS
B1 was tested. Which koff did it give?
The koff was 0.00175 s⁻¹.
